Reference: US12630596B2, “Engineered lysin-human defensin protein” (priority 2018, dated 2026)
≈ marks a conversion by molar mass, not a printed value. Like-named read-outs stand apart in the source and are kept apart here.

How the values were obtained:
[1] = molecular target: Clostridium difficile toxin B (TcdB) (Clostridioides difficile, UniProt P18177); assay: Inhibition of TcdB cytotoxicity in CT26 cells (cell rounding, non-glucosylated Rac1 Western blot); format: cell-based; conditions: pre-treatment 750 ng/ml 1 hr, TcdB 15 ng/ml 5 hrs
Sequence of Clostridium difficile toxin B (TcdB) (P18177 whole entry): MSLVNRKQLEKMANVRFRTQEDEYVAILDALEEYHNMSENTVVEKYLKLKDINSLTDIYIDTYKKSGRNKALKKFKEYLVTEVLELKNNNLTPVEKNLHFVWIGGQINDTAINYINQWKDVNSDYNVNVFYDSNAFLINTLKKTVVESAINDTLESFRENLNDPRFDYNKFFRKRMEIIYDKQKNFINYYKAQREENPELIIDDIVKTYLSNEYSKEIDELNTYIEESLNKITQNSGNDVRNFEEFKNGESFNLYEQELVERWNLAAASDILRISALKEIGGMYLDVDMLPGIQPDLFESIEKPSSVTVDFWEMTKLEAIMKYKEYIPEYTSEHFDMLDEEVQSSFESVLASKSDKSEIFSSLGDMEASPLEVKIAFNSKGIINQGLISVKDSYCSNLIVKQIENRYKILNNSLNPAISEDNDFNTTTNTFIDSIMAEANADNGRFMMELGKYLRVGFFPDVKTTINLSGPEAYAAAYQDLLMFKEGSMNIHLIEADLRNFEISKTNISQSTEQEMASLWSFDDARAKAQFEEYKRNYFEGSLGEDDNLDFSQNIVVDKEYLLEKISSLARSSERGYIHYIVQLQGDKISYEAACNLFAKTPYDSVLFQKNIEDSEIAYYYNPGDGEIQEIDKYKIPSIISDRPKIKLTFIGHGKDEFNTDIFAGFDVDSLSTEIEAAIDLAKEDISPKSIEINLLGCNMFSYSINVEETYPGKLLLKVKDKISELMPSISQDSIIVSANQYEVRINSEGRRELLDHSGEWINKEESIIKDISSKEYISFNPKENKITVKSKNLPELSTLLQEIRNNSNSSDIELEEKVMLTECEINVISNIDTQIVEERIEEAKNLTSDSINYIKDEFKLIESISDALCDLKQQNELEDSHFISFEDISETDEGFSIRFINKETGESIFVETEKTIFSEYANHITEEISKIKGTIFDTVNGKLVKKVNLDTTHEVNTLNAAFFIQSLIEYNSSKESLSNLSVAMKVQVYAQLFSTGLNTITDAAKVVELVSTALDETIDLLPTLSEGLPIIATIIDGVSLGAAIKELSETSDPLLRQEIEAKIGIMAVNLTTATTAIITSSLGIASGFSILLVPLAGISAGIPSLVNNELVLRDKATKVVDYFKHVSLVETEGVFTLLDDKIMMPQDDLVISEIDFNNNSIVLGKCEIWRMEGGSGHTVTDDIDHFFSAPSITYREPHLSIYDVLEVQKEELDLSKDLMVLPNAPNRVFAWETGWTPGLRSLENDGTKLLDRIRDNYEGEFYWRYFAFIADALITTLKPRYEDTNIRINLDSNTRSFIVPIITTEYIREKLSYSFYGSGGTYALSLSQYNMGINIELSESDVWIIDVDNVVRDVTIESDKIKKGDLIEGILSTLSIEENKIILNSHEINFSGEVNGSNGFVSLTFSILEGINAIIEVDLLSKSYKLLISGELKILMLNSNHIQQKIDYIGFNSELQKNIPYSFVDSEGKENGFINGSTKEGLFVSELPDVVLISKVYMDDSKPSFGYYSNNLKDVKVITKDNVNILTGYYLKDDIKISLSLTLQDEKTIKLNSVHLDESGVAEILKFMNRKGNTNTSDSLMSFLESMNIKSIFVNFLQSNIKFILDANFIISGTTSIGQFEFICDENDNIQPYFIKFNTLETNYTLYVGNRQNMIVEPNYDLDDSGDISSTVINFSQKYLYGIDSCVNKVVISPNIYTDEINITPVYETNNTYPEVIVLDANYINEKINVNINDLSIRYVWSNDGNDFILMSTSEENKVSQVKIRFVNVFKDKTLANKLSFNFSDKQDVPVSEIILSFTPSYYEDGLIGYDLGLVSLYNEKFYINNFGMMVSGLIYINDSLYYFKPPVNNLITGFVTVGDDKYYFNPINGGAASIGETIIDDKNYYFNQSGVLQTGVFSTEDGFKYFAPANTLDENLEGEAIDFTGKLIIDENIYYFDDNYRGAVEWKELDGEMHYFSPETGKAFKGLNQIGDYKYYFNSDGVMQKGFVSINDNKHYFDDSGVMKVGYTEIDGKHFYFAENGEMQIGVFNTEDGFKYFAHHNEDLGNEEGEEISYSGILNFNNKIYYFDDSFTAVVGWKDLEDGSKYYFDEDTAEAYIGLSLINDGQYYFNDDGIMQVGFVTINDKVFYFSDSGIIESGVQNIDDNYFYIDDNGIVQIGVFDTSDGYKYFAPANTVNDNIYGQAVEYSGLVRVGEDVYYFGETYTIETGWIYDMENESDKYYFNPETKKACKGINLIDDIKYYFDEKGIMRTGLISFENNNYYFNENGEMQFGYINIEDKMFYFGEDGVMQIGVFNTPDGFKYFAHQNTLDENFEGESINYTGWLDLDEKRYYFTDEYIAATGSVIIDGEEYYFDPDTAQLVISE
Procedure: (§1) (FIG. 5A) LHD inhibits TcdB-induced cell rounding. CT26 cells in 12-well plates were exposed to HD or LHD at 750 ng/ml (50 times of TcdB concentration) or nothing for 1 hour, followed by exposure to TcdB at 15 ng/ml for 5 hours. (FIG. 5B) Western-blot analysis of non-glucosylated Rac1 in CT26 cells treated with TcdB in the presence or absence of LHD or HD. TcdB glucosylates Rac1 in cells, serving as a readout for toxin cytotoxicity. Quantitation of Rac1 levels in Western-blot was shown in low panel (*p<0.05). (FIG. 5C) CT26 cells were lysed, and the cytosolic fraction was exposed to TcdB (15 ng/ml) with or without HD at 750 ng/ml (50 times of TcdB concentration) or LHD at 1500 ng/ml (same molecular concentration as HD) or nothing for 1 h followed by Western Blot analysis using a monoclonal antibody that only recognizes non-glucosylated Rac1. β-actin was used as an equal loading control. Quantitation of Rac1 levels in Western-blot was shown in low panel (****p<0.0001).
It was reported that the human defensin protein HD5 (HD) could inhibit TcdB (Giesemann, Guttenberg et al. 2008). Therefore, we evaluated the inhibitory effects of LHD and HD on TcdB. Briefly, CT26 cells in 12-well plates were exposed to LHD, synthesized HD or PBS at 750 ng/ml (50 times of TcdB concentration) for 1 hr, followed by exposure to TcdB at 15 ng/ml for 5 hrs. Total cell lysates were subjected to 12% SDS-PAGE separation, and transferred onto a Nylon membrane. Following blocking for 1 hr at room temperature with 5% skim milk, the membrane was incubated overnight at 4° C. with RAC1 antibody (1:1000, Cat: 610650, BD Biosciences) and β-actin antibody (1:10000, Cat: A5441, Sigma-Aldrich).

[2] = molecular target: Glucosyltransferase (GT) activity of TcdB (Clostridioides difficile, UniProt P18177); assay: TcdB glucosyltransferase activity on Rac1 in CT26 cytosolic fraction; format: biochemical, Clostridium difficile; conditions: TcdB 15 ng/ml, 750 ng/ml, 1 hr
Sequence of Glucosyltransferase (GT) activity of TcdB (P18177 whole entry): as above
Procedure: as §1
Glucosyltransferase (GT) activity of TcdB was also measured by its ability to glucosylate Rho GTPase Rac1 in cell lysates (Zhang, Shi et al. 2013). CT26 cell pellets were resuspended in a reaction buffer (50 mM HEPES, pH 7.5, 100 mM KCl, 1 mM MnCl2 and 2 mM MgCl2), and lysed by passing through a 30 G needle for 40 times. […]

C. difficile R20291 [3] = assay: Optical drop assay, lytic activity on C. difficile R20291; format: cell-based, Clostridium difficile; conditions: strain R20291, 200 μg/ml
Procedure: (§2) The lytic activity of proteins LHD and LCD against C. difficile strains was determined as previously described (Wang, Euler et al. 2015). Briefly, C. difficile strains were cultured in an anaerobic chamber to mid-log phase, and the bacterial pellets were harvested by centrifugation at 3000×g for 5 min. Pellets were washed twice and re-suspended in sterilized ddH2O, and resuspensions were not buffered. Prior to tests, bacterial optical density at 600 nm (OD600) was adjusted to approximately 0.8-1.0. Proteins LHD and LCD were added into the cell re-suspension with the final concentration of 200 μg/ml. The drop in OD600 at 37° C. was measured every 10 minutes for 60 min˜90 min. Bacterial re-suspension with sterilized water was also set as a control. Three repeats were included in each test.

C. difficile R20291 [4] = assay: Minimum inhibitory concentration (MIC) on strain R20291; format: cell-based, Clostridium difficile; conditions: strain R20291, BHIS, 37° C. for 18 h
Procedure: The minimum inhibitory concentrations (MICs) of LHD and LCD were determined using the protocol of Wiegand, et al. (Wiegand, Hilpert et al. 2008) with some modifications, as described previously (Gilmer, Schmitz et al. 2017). In brief, strain R20291 was grown in BHIS and adjusted to ˜5×10^5 cells/ml in BHIS, and distributed into the wells of a 96-well round bottom polystyrene microtiter plate. In the wells of each row, either sterile-filtered lysin or control vehicle (metronidazole, vancomycin and fidaxomicin) was added with a final concertation varied from 200 μg/ml to 0.19 μg/ml (2-fold dilution) (Wiegand, Hilpert et al. 2008). The plates were incubated at 37° C. for 18 h. The MIC was “the lowest or minimum concentration of lysin or control vehicle that prevented the formation of a cell pellet (a measure of growth) on the bottom of the wells” (Gilmer, Schmitz et al. 2017). The MICs were also confirmed by measuring the OD600 values using a Bio-Rad plate reader (Bio-Rad, Hercules, CA).

[5] = tested on: C. difficile strains M120, VPI 10463, CD630, LC693, 1377; assay: Optical drop assay, lytic activity on other clinical epidemic C. difficile strains; format: cell-based, Clostridium difficile; conditions: different types of clinical epidemic strains, 200 μg/ml
Description: C. difficile strains R20291 (ribotype 027), M120 (ribotype 078), VPI 10463 (ribotype 087; ATCC 43255), CD630 (ribotype 012), LC693 (ribotype unknown, ST201), and 1377 (ribotype 012) were used in this study. Strains M120 and VPI 10463 were provided by Dr. Joseph A. Sorg from Texas A&M University. Strains R20291 and CD630 were provided by Dr. Abraham L. Sonenshein from Tufts University. Strains 1377 and LC693 were epidemic clinical strains in China (Li, Liu et al. 2015, Peng, Liu et al. 2017).
as §2

[6] = Clostridioides difficile, read-out: MIC

Molecule	glucosyltransferase activity of TcdB [2]	lytic activity (drop in OD600) (C. difficile R20291 [3])	MIC (C. difficile R20291 [4]; [6])	also measured
HD5: Human alpha-defensin 5 peptide (32 aa), synthesized; SEQ ID NO:3 (ATCYCRTGRCATRESLSGVCEISGRLYRLCCR) [reference compound]	significantly inhibited	moderate lytic activity		cell rounding caused by TcdB [1]: decreased cell rounding; non-glucosylated Rac1 in cells (readout of cytotoxicity of TcdB) [1]: inhibited the cytotoxicity
CCc1c(Cl)c(O)c(Cl)c(O)c1C(=O)O[C@H]1[C@H](O)[C@H](OC)[C@H](OC/C2=C\C=C\C[C@H](O)/C(C)=C/[C@H](CC)[C@@H](O[C@@H]3OC(C)(C)[C@@H](OC(=O)C(C)C)[C@H](O)[C@@H]3O)/C(C)=C/C(C)=C/C[C@@H]([C@@H](C)O)OC2=O)O[C@@H]1C [Fidaxomicin, fidaxomicin]			0.25 mg/L (≈ 0.236 µM)	
Cc1ncc([N+](=O)[O-])n1CCO [Metronidazole, metronidazole]			4 mg/L (≈ 23.4 µM)	
CN[C@H](CC(C)C)C(=O)N[C@H]1C(=O)N[C@@H](CC(N)=O)C(=O)N[C@H]2C(=O)N[C@H]3C(=O)N[C@H](C(=O)N[C@H](C(=O)O)c4cc(O)cc(O)c4-c4cc3ccc4O)[C@H](O)c3ccc(c(Cl)c3)Oc3cc2cc(c3O[C@@H]2O[C@H](CO)[C@@H](O)[C@H](O)[C@H]2O[C@H]2C[C@](C)(N)[C@H](O)[C@H](C)O2)Oc2ccc(cc2Cl)[C@H]1O [Vancomycin, vancomycin]			4 mg/L (≈ 2.76 µM)	
LCD: Catalytic domain (179 aa) of the lysin of C. difficile phage phiC2; SEQ ID NO:2; included as a control (protein, Catalytic domain (179 aa) of the lysin of C. difficile phage phiC2; included as a control) MKICITVGHSILKSGACTSADGVVNEYQYNKSLAPVLADTFRKEGHKVDVIICPEKQFKTKNEEKSYKIPRVNSGGYDLLIELHLNASNGQGKGSEVLYYSNKGLEYATRICDKLGTVFKNRGAKLDKRLYILNSSKPTAVLIESFFCDNKEDYDKAKKLGHEGIAKLIVEGVLNKNIN	significantly inhibited	potent lytic activities		MIC (C. difficile R20291 [4]): 1.56 mg/L; lytic activity (drop in OD600) [5]: potent lytic activities
